The values that follow come from US20200240982A1 (GOVERNMENT OF THE UNITED STATES OF AMERICA AS REPRESENTED …, published 2020).

In assay [1] the target is T1, Staphylococcal enterotoxin B (UniProt P01552 28-266).
T1 sequence: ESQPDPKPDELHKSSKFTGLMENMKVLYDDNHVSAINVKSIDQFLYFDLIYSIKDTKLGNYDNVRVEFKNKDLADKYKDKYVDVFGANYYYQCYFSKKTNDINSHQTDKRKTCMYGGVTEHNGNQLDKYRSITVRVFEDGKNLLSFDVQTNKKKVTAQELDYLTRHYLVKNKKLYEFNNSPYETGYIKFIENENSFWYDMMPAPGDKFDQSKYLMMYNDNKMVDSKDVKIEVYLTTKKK
Kind of assay: MagPlex sandwich fluoroimmunoassay; capture sdAb attached directly by EDC/sNHS.

Assay [2] has as its target Dengue NS1 protein (serotype not given) (Dengue virus).

B1: AcVe anti-SEB sdAb monomer (VHH)
VHH: DVQLVESGGGLVQPGGSLRLTCAASGLIFGSYAMGWFRQAPGKAREFVAAISWSGGDTYADSVKGRFTISRDNAKNTVYLQMNSLEPEDTAVYSCAAVGSKYYISKDAKDYGYWGQGTQVTVSS
Consider B1, for which the binding result in assay [1] is “binds”.

B2: DD7-DD7-SpyTag (VHH)
chain: EVQLVQSGGGSVQAGGSLRLSCAHSSITVPDYTIGWFRRAPGKGGEEVSLISMHGGRSWYAGSVKGRFAISRDSVKNTVYLQMNNLKPEDTDIYYCGGTTFGLAAAPNEYDSWGQGSQVTVSSGGGGSGGGGSGSEVQLVQSGGGSVQAGGSLRLSCAHSSITVPDYTIGWFRRAPGKGGEEVSLISMHGGRSWYAGSVKGRFAISRDSVKNTVYLQMNNLKPEDTDIYYCGGTTFGLAAAPNEYDSWGQGSQVTVSSGGGGSGGGGSGSAHIVMVDAYKPTKAAALEHHHHHH
In the case of B2, the “fold improvement in ability to detect NS1 (against DD7-gs3k)” value in assay [2] was around 25 fold.
